T1: Full-length cynomolgus monkey PSMA (TSC308), on cells (cynomolgus monkey, UniProt Q04609 1-750 (human entry))
T1 construct: also called cyno PSMA; CHOK1SV/cynoPSMA
T1 chain: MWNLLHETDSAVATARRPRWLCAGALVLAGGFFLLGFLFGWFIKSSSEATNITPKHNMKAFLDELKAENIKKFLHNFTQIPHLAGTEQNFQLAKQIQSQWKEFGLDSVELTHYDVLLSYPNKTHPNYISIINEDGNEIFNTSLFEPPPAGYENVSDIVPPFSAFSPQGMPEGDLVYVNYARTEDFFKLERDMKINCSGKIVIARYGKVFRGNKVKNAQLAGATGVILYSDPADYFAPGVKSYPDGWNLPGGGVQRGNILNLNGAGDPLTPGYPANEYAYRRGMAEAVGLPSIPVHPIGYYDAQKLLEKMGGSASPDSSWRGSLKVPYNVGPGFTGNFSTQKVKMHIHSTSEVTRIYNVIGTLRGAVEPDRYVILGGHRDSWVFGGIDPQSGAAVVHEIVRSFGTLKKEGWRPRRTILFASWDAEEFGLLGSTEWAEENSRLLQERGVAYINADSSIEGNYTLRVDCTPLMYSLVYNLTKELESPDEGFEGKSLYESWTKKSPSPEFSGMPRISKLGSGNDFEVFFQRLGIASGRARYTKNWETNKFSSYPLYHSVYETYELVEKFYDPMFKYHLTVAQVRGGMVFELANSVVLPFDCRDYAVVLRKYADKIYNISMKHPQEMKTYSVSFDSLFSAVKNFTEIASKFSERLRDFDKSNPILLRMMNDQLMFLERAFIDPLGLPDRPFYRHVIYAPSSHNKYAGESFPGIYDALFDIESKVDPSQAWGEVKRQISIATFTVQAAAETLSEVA


Experiments:
[1] = target: T2, Full-length Human PSMA (TSC435), on cells (human, UniProt Q04609 1-750); assay: flow cytometry on C4-2B cells, PE goat anti-human IgG Fc secondary, MFI (median)
T2 construct: also called CHOK1SV/huPSMA; PSMA on C4-2B, 22RV1, LNCaP, MDA-PCa-2b cells

[2] = target: T3, human CD3ε in the TCR/CD3 complex on Jurkat cells (human, UniProt P07766 23-207); assay: flow cytometry on Jurkat cells, PE goat anti-human IgG Fc secondary, MFI (median)
T3 construct: whole, on cells; On the cells it stands in the whole TCR/CD3 complex; also called CD3 (+) cells; CD3-expressing Jurkat cells

[3] = target: T1, Full-length cynomolgus monkey PSMA …; assay: cell binding on CHOK1SV/cynoPSMA transfectants, MSD electrochemiluminescence (ECL), SULFO-TAG goat anti-human IgG
Method: (§1) To measure the relative binding activity of humanized PSMA-binding domain variants, constructs were tested in cell binding assays on CHOK1SV cells transfected with human or cynomolgus PSMA. The generation of CHOK1SV/huPSMA cells was described earlier; CHOK1SV/cynoPSMA cells were generated using the same method. Bivalent PSMA-binding domains variants in scFv-Fc format (constructs PSMA01019, PSMA01020, PSMA01021, PSMA01023, PSMA01024 and PSMA01025) were tested in these assays.
(§2) Binding studies on CHOK1SV transfectants were performed in live cell-based ELISA using electrochemiluminescence (Meso Scale Discovery). CHOK1SV cells were washed and seeded at 50,000 cells/well in 1× Hank's Balanced Salt Solution (HBSS) on 96-well Multi-Array High Bind plates (Meso Scale Discovery) and incubated at 37° C. for one hour. Following a blocking step in PBS buffer with 20% FBS, serial dilutions of PSMA-binding constructs (from 0.002 to 100 nM) were added in PBS buffer with 10% FBS and incubated at room temperature for one hour. Plates were washed with PBS and the specific binding levels were detected by SULFO TAG-labeled goat anti-human IgG antibody (Meso Scale Discovery #R32AJ). Following an hour incubation and wash steps, 150 μL/well surfactant free 1× Read Buffer T were added and samples were analyzed on MSD Sector Imager (Meso Scale Discovery). Resulting electrochemiluminescence (ECL) values versus concentrations were plotted and nonlinear regression analysis to determine EC50 values was performed in GraphPad Prism 7® graphing and statistics software.

[4] = target: T2, Full-length Human PSMA (TSC435), on …; assay: cell binding on CHOK1SV/humanPSMA transfectants, MSD electrochemiluminescence (ECL), SULFO-TAG goat anti-human IgG
Method: as §1, §2

[5] = target: T4, Human PSMA ECD-AFH (TSC033), recombinant dimeric PSMA ECD (human, UniProt Q04609 44-750); assay: SPR (Biacore T200), scFv-Fc captured on anti-human IgG, dimeric PSMA ECD as analyte, 1:1 fit
T4 construct: SEC-purified dimer; also called HuPSMA-AFH; Avi-His-Human PSMA ECD
Method: Mouse anti-human IgG (GE, BR-1008-39) at 25 μg/ml in 10 mM sodium acetate pH 5.0 was immobilized at a density of ˜2,000-4,000 response units (RU) onto each flow cell of a CM5 research-grade sensor chip (GE) by standard amine coupling chemistry. Each anti-PSMA protein at approximately 40 nM in dPBS with 0.2% BSA buffer was captured in a flow cell with the immobilized anti-human IgG at a flow rate of […] for up to 30 seconds, leaving one flow cell surface unmodified as the reference. Using a multi-cycle kinetics mode, a buffer blank and […] different concentrations of ECD ranging from 1 nM to 243 nM were sequentially injected through each flow cell at 30 μL/min with association times varying from 300-600 seconds and dissociation times varying from 600-1200 seconds. Regeneration was achieved by injection of 3 M MgCl₂ at a flow rate of 30 μL/min for up to 40 seconds followed by dPBS with 0.2% BSA buffer stabilization for 1 min.
Sensorgrams obtained from kinetic SPR measurements were analyzed using the double subtraction method. The signal from the reference flow cell was subtracted from the analyte binding response obtained from flow cells with captured ligands. The buffer blank response was then subtracted from analyte binding responses and the final double-referenced data were analyzed with Biacore T200 Evaluation software (2.0, GE), globally fitting data to derive kinetic parameters. All sensorgrams were fitted using a simple one-to-one binding model.

T4 sequence (Q04609 other isoform, or with tags, fused parts or gaps): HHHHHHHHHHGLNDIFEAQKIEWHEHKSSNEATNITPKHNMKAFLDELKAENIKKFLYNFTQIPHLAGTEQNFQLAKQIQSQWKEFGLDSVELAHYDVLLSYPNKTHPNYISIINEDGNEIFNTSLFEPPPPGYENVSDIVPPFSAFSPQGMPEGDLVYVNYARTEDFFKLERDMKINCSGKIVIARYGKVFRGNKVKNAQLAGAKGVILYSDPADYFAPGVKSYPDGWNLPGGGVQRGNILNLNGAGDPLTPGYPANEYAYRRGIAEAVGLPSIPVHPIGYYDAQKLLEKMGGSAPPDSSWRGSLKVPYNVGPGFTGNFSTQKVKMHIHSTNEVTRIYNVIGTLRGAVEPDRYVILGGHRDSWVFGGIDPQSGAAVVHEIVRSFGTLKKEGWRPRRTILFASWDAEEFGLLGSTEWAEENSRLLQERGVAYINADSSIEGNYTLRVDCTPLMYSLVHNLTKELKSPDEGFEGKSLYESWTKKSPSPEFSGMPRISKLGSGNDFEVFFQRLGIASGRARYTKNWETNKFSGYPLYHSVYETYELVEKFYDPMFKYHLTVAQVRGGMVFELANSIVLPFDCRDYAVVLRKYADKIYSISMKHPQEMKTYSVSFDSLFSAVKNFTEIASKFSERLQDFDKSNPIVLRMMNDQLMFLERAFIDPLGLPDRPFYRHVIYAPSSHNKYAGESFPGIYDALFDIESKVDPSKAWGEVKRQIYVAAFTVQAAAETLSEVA
T3 sequence (P07766 23-207, one chain of several): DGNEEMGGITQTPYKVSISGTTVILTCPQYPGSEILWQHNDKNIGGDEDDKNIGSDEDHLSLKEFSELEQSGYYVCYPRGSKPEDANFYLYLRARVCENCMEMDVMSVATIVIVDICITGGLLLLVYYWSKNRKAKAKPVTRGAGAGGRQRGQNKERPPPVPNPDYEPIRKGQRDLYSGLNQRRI

| EC50 [1] | EC50 [2] | EC50 [3] | EC50 [4] | Kd [5] | koff [5] | kon [5] | Binder |
| --- | --- | --- | --- | --- | --- | --- | --- |
| 1 nM | 1 nM | – | – | – | – | – | PSMA01072 Anti PSMA scFv x Anti CD3 scFv ADAPTIR (bispecific antibody, also called PSMA1072) QVQLVQSGAEVKKPGASVKVSCKASGYTFTDYYMHWVRQAPGQGLEWMGYFNPYNDYTRYAQKFQGRVTMTRDTSTSTVYMELSSLRSEDTAVYYCARSDGYYDAMDYWGQGTTVTVSSGGGGSGGGGSGGGGSGGGGSDIQMTQSPSSLSASVGDRVTITCRASKSISKYLAWYQQKPGKAPKLLIHSGSSLESGVPSRFSGSGSGTEFTLTISSLQPDDFATYYCQQHIEYPWTFGQGTKVEIKEPKSSDKTHTCPPCPAPPAAAPSVFLFPPKPKDTLMISRTPEVTCVVVDVSHEDPEVKFNWYVDGVEVHNAKTKPREEQYNSTYRVVSVLTVLHQDWLNGKEYKCAVSNKALPAPIEKTISKAKGQPREPQVYTLPPSRDELTKNQVSLTCLVKGFYPSDIAVEWESNGQPENNYKTTPPVLDSDGSFFLYSKLTVDKSRWQQGNVFSCSVMHEALHNHYTQKSLSLSPGGGGSPSQVQLVQSGAEVKKPGASVKVSCKASGYTFTRSTMHWVRQAPGQGLEWIGYINPSSAYTNYAQKFQGRVTLTADKSTSTAYMELSSLRSEDTAVYYCASPQVHYDYNGFPYWGQGTLVTVSSGGGGSGGGGSGGGGSGGGGSDIQMTQSPSSLSASVGDRVTITCRASSSVSYMNWYQQKPGKAPKRWIYDSSKLASGVPSRFSGSGSGTDFTLTISSLQPEDFATYYCQQWSRNPPTFGQGTKVEIKRS |
| 23 nM | 26 nM | – | – | – | – | – | PSMA01026 Anti PSMA scFv-Fc; Anti CD3 scFv-Fc (bispecific antibody) chain 1: DIQMTQSPSTLSASVGDRVTITCRASKSISKYLAWYQQKPGKAPKLLIHSGSSLESGVPSRFSGSGSGTEFTLTISSLQPDDFATYYCQQHIEYPWTFGQGTKVEIKGGGGSGGGGSGGGGSGGGGSQVQLVQSGAEVKKPGASVKVSCKASGYTFTDYYMHWVRQAPGQGLEWMGYFNPYNDYTRYAQKFQGRVTMTRDTSTSTVYMELSSLRSEDTAVYYCARSDGYYDAMDYWGQGTTVTVEPKSSDKTHTCPPCPAPPAAAPSVFLFPPKPKDTLMISRTPEVTCVVVDVSHEDPEVKFNWYVDGVEVHNAKTKPREEQYNSTYRVVSVLTVLHQDWLNGKEYKCAVSNKALPAPIEKTISKAKGQPREPQVYTLPPSRDELTKNQVSLWCLVKGFYPSDIAVEWESNGQPENNYKTTPPVLDSDGSFFLYSKLTVDKSRWQQGNVFSCSVMHEALHNHYTQKSLSLSPG chain 2: QVQLVQSGAEVKKPGASVKVSCKASGYTFTRSTMHWVRQAPGQGLEWIGYINPSSAYTNYAQKFQGRVTLTADKSTSTAYMELSSLRSEDTAVYYCASPQVHYDYNGFPYWGQGTLVTVSSGGGGSGGGGSGGGGSGGGGSDIQMTQSPSSLSASVGDRVTITCRASSSVSYMNWYQQKPGKAPKRWIYDSSKLASGVPSRFSGSGSGTDFTLTISSLQPEDFATYYCQQWSRNPPTFGQGTKVEIKEPKSSDKTHTCPPCPAPPAAAPSVFLFPPKPKDTLMISRTPEVTCVVVDVSHEDPEVKFNWYVDGVEVHNAKTKPREEQYNSTYRVVSVLTVLHQDWLNGKEYKCAVSNKALPAPIEKTISKAKGQPREPQVYTLPPSRDELTKNQVSLSCAVKGFYPSDIAVEWESNGQPENNYKTTPPVLDSDGSFFLVSKLTVDKSRWQQGNVFSCSVMHEALHNRFTQKSLSLSPG |
| 30 nM | 52 nM | – | – | – | – | – | PSMA01070 Anti PSMA scFv-Fc; Anti CD3 scFv-Fc (bispecific antibody) chain 1: QVQLVQSGAEVKKPGASVKVSCKASGYTFTDYYMHWVRQAPGQGLEWMGYFNPYNDYTRYAQKFQGRVTMTRDTSTSTVYMELSSLRSEDTAVYYCARSDGYYDAMDYWGQGTTVTVSSGGGGSGGGGSGGGGSGGGGSDIQMTQSPSSLSASVGDRVTITCRASKSISKYLAWYQQKPGKAPKLLIHSGSSLESGVPSRFSGSGSGTEFTLTISSLQPDDFATYYCQQHIEYPWTFGQGTKVEIKEPKSSDKTHTCPPCPAPPAAAPSVFLFPPKPKDTLMISRTPEVTCVVVDVSHEDPEVKFNWYVDGVEVHNAKTKPREEQYNSTYRVVSVLTVLHQDWLNGKEYKCAVSNKALPAPIEKTISKAKGQPREPQVYTLPPSRDELTKNQVSLWCLVKGFYPSDIAVEWESNGQPENNYKTTPPVLDSDGSFFLYSKLTVDKSRWQQGNVFSCSVMHEALHNHYTQKSLSLSPG chain 2: QVQLVQSGAEVKKPGASVKVSCKASGYTFTRSTMHWVRQAPGQGLEWIGYINPSSAYTNYAQKFQGRVTLTADKSTSTAYMELSSLRSEDTAVYYCASPQVHYDYNGFPYWGQGTLVTVSSGGGGSGGGGSGGGGSGGGGSDIQMTQSPSSLSASVGDRVTITCRASSSVSYMNWYQQKPGKAPKRWIYDSSKLASGVPSRFSGSGSGTDFTLTISSLQPEDFATYYCQQWSRNPPTFGQGTKVEIKEPKSSDKTHTCPPCPAPPAAAPSVFLFPPKPKDTLMISRTPEVTCVVVDVSHEDPEVKFNWYVDGVEVHNAKTKPREEQYNSTYRVVSVLTVLHQDWLNGKEYKCAVSNKALPAPIEKTISKAKGQPREPQVYTLPPSRDELTKNQVSLSCAVKGFYPSDIAVEWESNGQPENNYKTTPPVLDSDGSFFLVSKLTVDKSRWQQGNVFSCSVMHEALHNRFTQKSLSLSPG |
| – | – | 8 nM | 4 nM | 16 nM | 0.00019 s⁻¹ | 12000 M⁻¹ s⁻¹ | PSMA01020 Anti-PSMA scFv-Fc (Fc fusion, Monospecific, bivalent scFv-Fc, VL-VH) DIQMTQSPSTLSASVGDRVTITCRASKSISKYLAWYQQKPGKAPKLLIHSGSSLESGVPSRFSGSGSGTEFTLTISSLQPDDFATYYCQQHIEYPWTFGQGTKVEIKGGGGSGGGGSGGGGSGGGGSEVQLLESGGGLVQPGGSLRLSCAASGYTFTDYYIHWVRQAPGKGLEWIGSFNPYNDYTSYADSVKGRATLSVDKSKNTAYLQMNSLRAEDTAVYYCARSDGYYDAMDYWGQGTLVTVSSSEPKSSDKTHTCPPCPAPEAAGAPSVFLFPPKPKDTLMISRTPEVTCVVVDVSHEDPEVKFNWYVDGVEVHNAKTKPREEQYNSTYRVVSVLTVLHQDWLNGKEYKCAVSNKALPAPIEKTISKAKGQPREPQVYTLPPSRDELTKNQVSLTCLVKGFYPSDIAVEWESNGQPENNYKTTPPVLDSDGSFFLYSKLTVDKSRWQQGNVFSCSVMHEALHNHYTQKSLSLSPGK |
